Experimental data as given in the supplement of paper PMC10065799, “High-throughput profiling of sequence recognition by tyrosine kinases and SH2 domains using bacterial peptide display” (eLife, 2023).

Biological target: EPHB2 (UniProt P29323)
Assay: phosphorylation enrichment, bacterial display (enrichment ratio); higher = better substrate or ligand; peptides without Tyr show the background
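Wherever SH2 binding enrichment of the phosphorylated peptide, bacterial display is given: peptide library displayed on the E. coli surface as eCPX fusions, selected cells deep-sequenced, score is each peptide's frequency after selection divided by its frequency in the input.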
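Wherever phosphorylation enrichment, bacterial display is given: 11-residue human phosphosite peptides and single-mutation variants displayed on the E. coli surface, counted by deep sequencing, each peptide's frequency after selection divided by its frequency in the unselected input library; frequency after pTyr selection over input frequency; kinase dosed for 20-30% of maximal phosphorylation in three min.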

EPHB2, sequence (P29323 whole entry, looked up): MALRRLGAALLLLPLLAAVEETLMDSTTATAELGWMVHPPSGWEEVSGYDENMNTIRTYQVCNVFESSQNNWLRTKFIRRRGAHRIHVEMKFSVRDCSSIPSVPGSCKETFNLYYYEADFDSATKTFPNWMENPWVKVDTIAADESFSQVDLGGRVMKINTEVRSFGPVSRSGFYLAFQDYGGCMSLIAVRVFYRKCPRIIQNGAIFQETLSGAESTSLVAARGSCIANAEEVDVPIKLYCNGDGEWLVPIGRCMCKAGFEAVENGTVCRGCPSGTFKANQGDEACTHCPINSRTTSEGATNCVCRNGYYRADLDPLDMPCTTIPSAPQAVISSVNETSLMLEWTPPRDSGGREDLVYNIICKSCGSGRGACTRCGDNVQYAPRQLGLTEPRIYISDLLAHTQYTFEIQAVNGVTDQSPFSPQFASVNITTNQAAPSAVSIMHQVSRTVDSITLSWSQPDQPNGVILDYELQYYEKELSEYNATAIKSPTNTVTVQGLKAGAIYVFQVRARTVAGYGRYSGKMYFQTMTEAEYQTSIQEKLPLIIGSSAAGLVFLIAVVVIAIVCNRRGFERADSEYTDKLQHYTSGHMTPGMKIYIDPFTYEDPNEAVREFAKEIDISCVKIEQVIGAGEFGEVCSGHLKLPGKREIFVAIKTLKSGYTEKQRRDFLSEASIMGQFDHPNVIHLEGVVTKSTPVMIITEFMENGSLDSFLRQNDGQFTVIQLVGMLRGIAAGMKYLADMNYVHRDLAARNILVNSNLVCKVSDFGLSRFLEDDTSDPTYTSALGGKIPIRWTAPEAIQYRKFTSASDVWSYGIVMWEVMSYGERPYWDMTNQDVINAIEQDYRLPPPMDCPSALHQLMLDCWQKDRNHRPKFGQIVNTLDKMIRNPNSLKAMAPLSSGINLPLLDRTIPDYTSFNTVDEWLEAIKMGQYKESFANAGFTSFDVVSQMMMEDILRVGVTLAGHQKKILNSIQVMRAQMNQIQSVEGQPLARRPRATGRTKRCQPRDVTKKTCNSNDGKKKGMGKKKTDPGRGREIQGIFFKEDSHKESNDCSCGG

Sequence	phosphorylation enrichment
EMQAAYQKVVA [HBD_Y131_Q126E]	0.42
NKYTTYLPWLP [C9orf24_Y126_R129W]	12.8
AIMSFYAALIN [RYR1_Y2426_D2431N]	0.991
YMRGMYFRMKD [PLA2G6_Y541]	0.523
TSYSGYRYHRH [NKAPL_Y94]	0.42
FRDALYKSMVD [PHEX_Y250_F252S_YF]	0.614
RVQKRYIFDNV [RCN1_Y115]	0.472
HPFHVYPQPGM [BAG3_Y114]	1.01
VQNIVYHTASI [CYP39A1_Y102_R103H]	0.43
RPSRWYQFRVA [ANOS1_Y259]	0.717
KKHFSYAWPFF [BRDT_Y291_YF]	0.494
CRPPYYHRNCM [HGD_Y334_F329C]	0.556
KFMVGYEMLAQ [GALT_Y339]	0.504
LKLWDYRRGRC [WDR5B_Y239_S240R]	0.857
LAARYYNWVCF [FLT4_Y1231_S1235C]	0.615
FFSSEYHCVGG [CTSC_Y345_Y347C_YF]	2.15

Biological target: Fyn (UniProt P06241)
Assay: as above

Fyn, sequence (P06241 whole entry, looked up): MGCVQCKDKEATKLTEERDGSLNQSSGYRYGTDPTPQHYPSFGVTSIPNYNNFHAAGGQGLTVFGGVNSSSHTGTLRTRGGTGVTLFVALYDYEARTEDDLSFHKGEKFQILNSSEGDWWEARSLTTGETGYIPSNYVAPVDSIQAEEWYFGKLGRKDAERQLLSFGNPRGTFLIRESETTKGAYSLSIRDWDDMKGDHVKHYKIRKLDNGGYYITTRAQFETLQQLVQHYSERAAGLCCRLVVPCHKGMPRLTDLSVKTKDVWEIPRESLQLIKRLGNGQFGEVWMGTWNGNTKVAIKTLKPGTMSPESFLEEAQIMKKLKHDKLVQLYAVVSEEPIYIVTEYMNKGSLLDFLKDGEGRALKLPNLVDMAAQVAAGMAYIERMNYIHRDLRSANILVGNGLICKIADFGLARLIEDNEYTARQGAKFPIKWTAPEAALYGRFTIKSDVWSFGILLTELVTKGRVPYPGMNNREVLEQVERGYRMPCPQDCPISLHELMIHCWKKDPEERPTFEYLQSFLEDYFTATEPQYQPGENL

Sequence	phosphorylation enrichment
EMQAAYQKVVA [HBD_Y131_Q126E]	0.472
NKYTTYLPWLP [C9orf24_Y126_R129W]	6.75
AIMSFYAALIN [RYR1_Y2426_D2431N]	0.508
YMRGMYFRMKD [PLA2G6_Y541]	0.416
TSYSGYRYHRH [NKAPL_Y94]	0.891
FRDALYKSMVD [PHEX_Y250_F252S_YF]	0.419
RVQKRYIFDNV [RCN1_Y115]	0.319
HPFHVYPQPGM [BAG3_Y114]	0.804
VQNIVYHTASI [CYP39A1_Y102_R103H]	0.401
RPSRWYQFRVA [ANOS1_Y259]	1.01
KKHFSYAWPFF [BRDT_Y291_YF]	0.428
CRPPYYHRNCM [HGD_Y334_F329C]	0.565
KFMVGYEMLAQ [GALT_Y339]	0.417
LKLWDYRRGRC [WDR5B_Y239_S240R]	0.604
LAARYYNWVCF [FLT4_Y1231_S1235C]	0.777
FFSSEYHCVGG [CTSC_Y345_Y347C_YF]	1.58

Biological target: Fes (UniProt P07332)
Assay: as above

Fes, sequence (P07332 whole entry, looked up): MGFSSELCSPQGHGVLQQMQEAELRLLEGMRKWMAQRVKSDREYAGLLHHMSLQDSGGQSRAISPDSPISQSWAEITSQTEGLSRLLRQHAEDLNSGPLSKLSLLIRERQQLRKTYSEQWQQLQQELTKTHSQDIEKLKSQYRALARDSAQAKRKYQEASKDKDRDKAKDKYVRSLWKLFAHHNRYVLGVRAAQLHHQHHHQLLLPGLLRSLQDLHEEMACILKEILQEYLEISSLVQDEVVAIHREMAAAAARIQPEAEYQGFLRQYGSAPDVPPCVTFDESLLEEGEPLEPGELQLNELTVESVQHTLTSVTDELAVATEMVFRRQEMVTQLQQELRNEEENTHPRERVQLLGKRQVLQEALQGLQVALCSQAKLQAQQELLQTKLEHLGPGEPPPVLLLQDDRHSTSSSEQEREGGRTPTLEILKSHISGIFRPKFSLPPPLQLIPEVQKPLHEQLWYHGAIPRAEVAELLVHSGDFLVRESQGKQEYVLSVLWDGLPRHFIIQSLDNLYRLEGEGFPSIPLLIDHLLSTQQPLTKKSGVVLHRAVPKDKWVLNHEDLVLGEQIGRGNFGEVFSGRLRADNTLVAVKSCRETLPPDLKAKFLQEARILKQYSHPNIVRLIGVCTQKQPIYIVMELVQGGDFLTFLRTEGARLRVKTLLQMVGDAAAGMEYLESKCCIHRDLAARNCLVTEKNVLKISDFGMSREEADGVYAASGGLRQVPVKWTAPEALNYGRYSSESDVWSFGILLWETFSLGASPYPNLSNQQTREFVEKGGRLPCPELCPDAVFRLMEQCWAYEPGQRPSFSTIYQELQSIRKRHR

Sequence	phosphorylation enrichment
EMQAAYQKVVA [HBD_Y131_Q126E]	0.656
NKYTTYLPWLP [C9orf24_Y126_R129W]	0.944
AIMSFYAALIN [RYR1_Y2426_D2431N]	1.3
YMRGMYFRMKD [PLA2G6_Y541]	0.947
TSYSGYRYHRH [NKAPL_Y94]	0.501
FRDALYKSMVD [PHEX_Y250_F252S_YF]	0.97
RVQKRYIFDNV [RCN1_Y115]	0.442
HPFHVYPQPGM [BAG3_Y114]	0.852
VQNIVYHTASI [CYP39A1_Y102_R103H]	0.708
RPSRWYQFRVA [ANOS1_Y259]	1.55
KKHFSYAWPFF [BRDT_Y291_YF]	1.13
CRPPYYHRNCM [HGD_Y334_F329C]	0.856
KFMVGYEMLAQ [GALT_Y339]	0.897
LKLWDYRRGRC [WDR5B_Y239_S240R]	0.757
LAARYYNWVCF [FLT4_Y1231_S1235C]	1.51
FFSSEYHCVGG [CTSC_Y345_Y347C_YF]	1.17

Test system: c-Abl (mouse)
Assay: as above

Sequence	phosphorylation enrichment
EMQAAYQKVVA [HBD_Y131_Q126E]	0.421
NKYTTYLPWLP [C9orf24_Y126_R129W]	1.94
AIMSFYAALIN [RYR1_Y2426_D2431N]	1
YMRGMYFRMKD [PLA2G6_Y541]	0.657
TSYSGYRYHRH [NKAPL_Y94]	0.46
FRDALYKSMVD [PHEX_Y250_F252S_YF]	0.643
RVQKRYIFDNV [RCN1_Y115]	0.252
HPFHVYPQPGM [BAG3_Y114]	0.938
VQNIVYHTASI [CYP39A1_Y102_R103H]	0.824
RPSRWYQFRVA [ANOS1_Y259]	0.955
KKHFSYAWPFF [BRDT_Y291_YF]	0.661
CRPPYYHRNCM [HGD_Y334_F329C]	0.743
KFMVGYEMLAQ [GALT_Y339]	0.622
LKLWDYRRGRC [WDR5B_Y239_S240R]	0.728
LAARYYNWVCF [FLT4_Y1231_S1235C]	0.977
FFSSEYHCVGG [CTSC_Y345_Y347C_YF]	1.88

Biological target: FGFR3 (UniProt P22607)
Assay: as above

FGFR3, sequence (P22607 whole entry, looked up): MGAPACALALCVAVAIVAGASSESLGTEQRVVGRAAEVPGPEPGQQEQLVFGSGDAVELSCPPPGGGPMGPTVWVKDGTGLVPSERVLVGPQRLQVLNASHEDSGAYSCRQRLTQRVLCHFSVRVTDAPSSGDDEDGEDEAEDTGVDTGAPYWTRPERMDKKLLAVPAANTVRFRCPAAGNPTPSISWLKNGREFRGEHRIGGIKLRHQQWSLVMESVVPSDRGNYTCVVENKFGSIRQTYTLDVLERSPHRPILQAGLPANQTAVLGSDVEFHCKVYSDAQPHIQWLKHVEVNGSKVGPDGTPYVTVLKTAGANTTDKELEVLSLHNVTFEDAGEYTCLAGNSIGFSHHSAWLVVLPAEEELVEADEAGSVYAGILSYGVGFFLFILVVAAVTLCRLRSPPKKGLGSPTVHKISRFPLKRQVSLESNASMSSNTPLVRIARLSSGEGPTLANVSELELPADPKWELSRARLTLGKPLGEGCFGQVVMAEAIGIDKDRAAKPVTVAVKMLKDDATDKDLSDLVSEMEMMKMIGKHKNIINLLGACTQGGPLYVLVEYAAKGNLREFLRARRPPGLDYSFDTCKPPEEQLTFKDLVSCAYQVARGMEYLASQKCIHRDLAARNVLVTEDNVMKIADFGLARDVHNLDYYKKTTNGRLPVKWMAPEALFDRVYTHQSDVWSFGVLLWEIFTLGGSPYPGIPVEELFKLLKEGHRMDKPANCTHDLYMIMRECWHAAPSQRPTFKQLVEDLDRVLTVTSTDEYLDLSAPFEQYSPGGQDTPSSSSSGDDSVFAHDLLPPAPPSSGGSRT

Sequence	phosphorylation enrichment
EMQAAYQKVVA [HBD_Y131_Q126E]	0.574
NKYTTYLPWLP [C9orf24_Y126_R129W]	2.25
AIMSFYAALIN [RYR1_Y2426_D2431N]	0.772
YMRGMYFRMKD [PLA2G6_Y541]	0.589
TSYSGYRYHRH [NKAPL_Y94]	0.433
FRDALYKSMVD [PHEX_Y250_F252S_YF]	0.642
RVQKRYIFDNV [RCN1_Y115]	0.619
HPFHVYPQPGM [BAG3_Y114]	0.998
VQNIVYHTASI [CYP39A1_Y102_R103H]	0.408
RPSRWYQFRVA [ANOS1_Y259]	0.887
KKHFSYAWPFF [BRDT_Y291_YF]	0.653
CRPPYYHRNCM [HGD_Y334_F329C]	0.628
KFMVGYEMLAQ [GALT_Y339]	0.697
LKLWDYRRGRC [WDR5B_Y239_S240R]	0.699
LAARYYNWVCF [FLT4_Y1231_S1235C]	1.94
FFSSEYHCVGG [CTSC_Y345_Y347C_YF]	4.98

Biological target: c-Src SH2
Assay: SH2 binding enrichment of the phosphorylated peptide, bacterial display (enrichment ratio); higher = better substrate or ligand; peptides without Tyr show the background

Sequence	SH2 binding enrichment
EMQAAYQKVVA [HBD_Y131_Q126E]	0.65
NKYTTYLPWLP [C9orf24_Y126_R129W]	0.739
AIMSFYAALIN [RYR1_Y2426_D2431N]	0.785
YMRGMYFRMKD [PLA2G6_Y541]	1.3
TSYSGYRYHRH [NKAPL_Y94]	0.649
FRDALYKSMVD [PHEX_Y250_F252S_YF]	0.516
RVQKRYIFDNV [RCN1_Y115]	0.273
HPFHVYPQPGM [BAG3_Y114]	0.883
VQNIVYHTASI [CYP39A1_Y102_R103H]	1.69
RPSRWYQFRVA [ANOS1_Y259]	0.541
KKHFSYAWPFF [BRDT_Y291_YF]	1.77
CRPPYYHRNCM [HGD_Y334_F329C]	1.65
KFMVGYEMLAQ [GALT_Y339]	3.23
LKLWDYRRGRC [WDR5B_Y239_S240R]	0.415
LAARYYNWVCF [FLT4_Y1231_S1235C]	1.07
FFSSEYHCVGG [CTSC_Y345_Y347C_YF]	0.709

Biological target: Grb2 SH2 (UniProt P62993)
Assay: as above

Grb2 SH2, sequence (P62993 whole entry, looked up): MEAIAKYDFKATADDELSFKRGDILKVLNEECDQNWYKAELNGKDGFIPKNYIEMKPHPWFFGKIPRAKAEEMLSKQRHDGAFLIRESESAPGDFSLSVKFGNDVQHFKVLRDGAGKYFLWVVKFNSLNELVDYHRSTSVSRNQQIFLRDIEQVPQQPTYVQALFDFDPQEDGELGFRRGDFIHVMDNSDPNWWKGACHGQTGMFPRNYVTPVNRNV

Sequence	SH2 binding enrichment
EMQAAYQKVVA [HBD_Y131_Q126E]	0.688
NKYTTYLPWLP [C9orf24_Y126_R129W]	1.14
AIMSFYAALIN [RYR1_Y2426_D2431N]	0.996
YMRGMYFRMKD [PLA2G6_Y541]	1.59
TSYSGYRYHRH [NKAPL_Y94]	0.985
FRDALYKSMVD [PHEX_Y250_F252S_YF]	0.795
RVQKRYIFDNV [RCN1_Y115]	0.468
HPFHVYPQPGM [BAG3_Y114]	1.05
VQNIVYHTASI [CYP39A1_Y102_R103H]	0.82
RPSRWYQFRVA [ANOS1_Y259]	0.771
KKHFSYAWPFF [BRDT_Y291_YF]	1.8
CRPPYYHRNCM [HGD_Y334_F329C]	1.78
KFMVGYEMLAQ [GALT_Y339]	1.33
LKLWDYRRGRC [WDR5B_Y239_S240R]	0.705
LAARYYNWVCF [FLT4_Y1231_S1235C]	4.36
FFSSEYHCVGG [CTSC_Y345_Y347C_YF]	0.87

Biological target: SHP2-C SH2
Assay: as above

Sequence	SH2 binding enrichment
EMQAAYQKVVA [HBD_Y131_Q126E]	0.498
NKYTTYLPWLP [C9orf24_Y126_R129W]	1.01
AIMSFYAALIN [RYR1_Y2426_D2431N]	1.18
YMRGMYFRMKD [PLA2G6_Y541]	1.5
TSYSGYRYHRH [NKAPL_Y94]	1.24
FRDALYKSMVD [PHEX_Y250_F252S_YF]	0.735
RVQKRYIFDNV [RCN1_Y115]	0.503
HPFHVYPQPGM [BAG3_Y114]	0.79
VQNIVYHTASI [CYP39A1_Y102_R103H]	4.37
RPSRWYQFRVA [ANOS1_Y259]	0.568
KKHFSYAWPFF [BRDT_Y291_YF]	2.15
CRPPYYHRNCM [HGD_Y334_F329C]	1.25
KFMVGYEMLAQ [GALT_Y339]	0.892
LKLWDYRRGRC [WDR5B_Y239_S240R]	0.399
LAARYYNWVCF [FLT4_Y1231_S1235C]	0.752
FFSSEYHCVGG [CTSC_Y345_Y347C_YF]	0.8
